According to patent US20220185876A1 (ATARGA, published 2022):
Read-outs that look alike come from different tables or passages of the source.

Key:
[1] = target: T1, human FGF23 (human, UniProt Q9GZV9 25-251); experiment: ELISA, binding to human FGF23 (A450 against log mAb concentration)
T1 construct: also called recombinant human FGF-23; Fibroblast Growth Factor 23
T1 sequence: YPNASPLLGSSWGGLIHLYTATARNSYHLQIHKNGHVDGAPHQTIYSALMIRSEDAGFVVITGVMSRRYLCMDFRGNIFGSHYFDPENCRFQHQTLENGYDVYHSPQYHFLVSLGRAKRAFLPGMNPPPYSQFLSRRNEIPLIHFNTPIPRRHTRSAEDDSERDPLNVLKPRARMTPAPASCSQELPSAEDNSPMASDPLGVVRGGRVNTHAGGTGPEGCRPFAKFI

[2] = target: T1, human FGF23; experiment: cell-based or functional assay
[3] = target: T1, human FGF23; experiment: ELISA, binding to human FGF23 (A450 against log mAb concentration); remark: listed apart in the source
[4] = target: T1, human FGF23; experiment: cell-based or functional assay; remark: listed apart in the source

Binder	EC50 [1] [µg/mL]	IC50, neutralisation of recombinant human FGF23-stimulated proliferation of NIH-3T3 cells (fluorescence) [2] [µg/mL]	EC50 [3] [µg/mL]	IC50, neutralisation of recombinant human FGF23-stimulated proliferation of NIH-3T3 cells (fluorescence) [4] [µg/mL]
Exc23 (antibody, V domains shown, Monoclonal anti-FGF23 antibody) VH: EVQLVQSGAEVRKPGASVKVSCKASGYTFTNHYMHWVRQAPGQGLEWMGIINPISGSTSNAQKLQGRVTFTRDTSANTAYMELSGLIPEDTAIYYCARDIVDAFDFWGQGTLVTVSS VL: DIQMTQSPSSLSASVGDRVTITCKASQGISSALVWYQQKPGKAPKLLIYDASSLQTGVPSRFSGSGSGTDFTFTISSLQPEDIATYYCQQFNDYFSFGPGTKLEIK	0.0295	–	–	–
ExA28 (antibody, V domains shown, Monoclonal anti-FGF23 antibody) VH: EVQLVQSGAEVRKPGASVKVSCKASGYTFTNHYMHWVRQAPGQGLEWMGIINPISGSTSNAQKLQGRVTFTRDTSANTAYMELSGLIPEDTAIYYCARDIVDAFDFWGQGTLVTVSS VL: AIQMTQSPSSLSASVGDRVTITCRASQGISSALVWYQQKPGKAPKLLIYDASSLESGVPSRFSGSGSGTDFTFTISSLQPEDIATYYCQQFNDYFTFGPGTKLEIK	–	0.316	0.0248	–
ExA60 (antibody, V domains shown, Monoclonal anti-FGF23 antibody) VH: EVQLVQSGAEVRKPGASVKVSCKASGYSFTNHYMHWVRQAPGQGLEWMGIINPNSGSTSNAQKLQGRVTFTRDTSANTAYMELSGLIPEDTAIYYCARDIVDAFDYWGQGTLVTVSS VL: AIQMTQSPSSLSASVGDRVTITCRASQGISSALVWYQQKPGKAPKLLIYDASSLESGVPSRFSGSGSGTDFTFTISSLQPEDIATYYCQQFNDYFTFGPGTKLEIK	–	0.5	0.0233	–
Exc23.1 (antibody, V domains shown, Monoclonal anti-FGF23 antibody) VH: EVQLVQSGAEVRKPGASVKVSCKASGYTFTNHYMHWVRQAPGQGLEWMGIINPISGSTSNAQKLQGRVTFTRDTSANTAYMELSGLIPEDTAIYYCARDIVDAFDFWGQGTLVTVSS VL: DIQMTQSPSSLSASVGDRVTITCKASQGISSALVWYQQKPGKAPKLLIYDASSLETGVPSRFSGSGSGTDFTFTISSLQPEDIATYYCQQFNDYFSFGPGTKLEIK	0.0332	–	–	1.63
Exc23.2 (antibody, V domains shown, Monoclonal anti-FGF23 antibody) VH: EVQLVQSGAEVRKPGASVKVSCKASGYTFTNHYMHWVRQAPGQGLEWMGIINPISGSTSNAQKLQGRVTFTRDTSANTAYMELSGLIPEDTAIYYCARDIVDAFDFWGQGTLVTVSS VL: DIQMTQSPSSLSASVGDRVTITCKASQGISSALVWYQQKPGKAPKLLIYDASSLQSGVPSRFSGSGSGTDFTFTISSLQPEDIATYYCQQFNDYFSFGPGTKLEIK	0.0262	–	–	–
Exc23.3 (antibody, V domains shown, Monoclonal anti-FGF23 antibody) VH: EVQLVQSGAEVRKPGASVKVSCKASGYTFTNHYMHWVRQAPGQGLEWMGIINPISGSTSNAQKLQGRVTFTRDTSANTAYMELSGLIPEDTAIYYCARDIVDAFDFWGQGTLVTVSS VL: DIQMTQSPSSLSASVGDRVTITCKASQGISSALVWYQQKPGKAPKLLIYDASSLQTGVPSRFSGSGSGTDFTFTISSLQPEDIATYYCQQFNDYFTFGPGTKLEIK	0.0286	–	–	1.29
Exc23.4 (antibody, V domains shown, Monoclonal anti-FGF23 antibody) VH: EVQLVQSGAEVRKPGASVKVSCKASGYTFTNHYMHWVRQAPGQGLEWMGIINPISGSTSNAQKLQGRVTFTRDTSANTAYMELSGLIPEDTAIYYCARDIVDAFDFWGQGTLVTVSS VL: DIQMTQSPSSLSASVGDRVTITCRASQGISSALVWYQQKPGKAPKLLIYDASSLQTGVPSRFSGSGSGTDFTFTISSLQPEDIATYYCQQFNDYFSFGPGTKLEIK	0.0266	–	–	–
Exc23.5 (antibody, V domains shown, Monoclonal anti-FGF23 antibody) VH: EVQLVQSGAEVRKPGASVKVSCKASGYTFTNHYMHWVRQAPGQGLEWMGIINPISGSTSNAQKLQGRVTFTRDTSANTAYMELSGLIPEDTAIYYCARDIVDAFDFWGQGTLVTVSS VL: AIQMTQSPSSLSASVGDRVTITCKASQGISSALVWYQQKPGKAPKLLIYDASSLQTGVPSRFSGSGSGTDFTFTISSLQPEDIATYYCQQFNDYFSFGPGTKLEIK	0.0273	–	–	–
ExA11 (antibody, V domains shown, Monoclonal anti-FGF23 antibody) VH: QVQLVQSGAELKKPGASVKVSCKASGYTFTNHYMHWVRQAPGQGLEWMGIINPISGSTTYAQKFQGRVTMTRDTSSSTAYMDLSRLTSDDTAVYYCARDIVDAFDFWGQGTTVTVSS VL: AIQLTQSPSSLSASVGDRVTITCRASQGISSALVWYQQKPGQAPRLLIYDASSLESGIPARFSGSGSGTDFTLTISSLEPEDFAVYYCQQFNDYFTFGQGTKLEIK	–	0.411	0.0267	–
ExA35 (antibody, V domains shown, Monoclonal anti-FGF23 antibody) VH: QVQLLESGAVLARPGTSVKISCKASGYTFTNHYMHWVKQRPGQGLEWIGIINPITGSSSNAQKFQGRVTITRDTSTSTVFMELSSLRSEDTAVYYCARDIVDAFDFWGQGTLVTVSS VL: AIQLTQSPSSLSASVGDRVTITCRASQGISSALVWYQQKPGQAPRLLIYDASSLESGIPARFSGSGSGTDFTLTISSLEPEDFAVYYCQQFNDYFTFGQGTKLEIK	–	0.355	0.0238	–
ExC50 (antibody, V domains shown, Monoclonal anti-FGF23 antibody) VH: QVQLLESGAVLARPGTSVKISCKASGYSFTNHYMHWVKQRPGQGLEWIGIINPITGSSSNAQKFQGRVTITRDTSTSTVFMELSSLRSEDTAVYYCARDLVDAFDFWGQGTLVTVSS VL: DIQLTQSPSSLSASVGDRVTITCRASQGISSALVWYQQKPGQAPRLLIYDASSLQSGIPARFSGSGSGTDFTLTISSLEPEDFAVYYCQQFNDYFTFGQGTKLEIK	–	0.199	0.0204	–
ExC17 (antibody, V domains shown, Monoclonal anti-FGF23 antibody) VH: EVQLVQSGAEVRKPGASVKVSCKASGYTFTNHYMHWVRQAPGQGLEWMGIINPISGSTSNAQKLQGRVTFTRDTSANTAYMELSGLIPEDTAIYYCARDIVDAFDFWGQGTLVTVSS VL: DIQLTQSPSSLSASVGDRVTITCRASQGISSALVWYQQKPGQAPRLLIYDASSLQSGIPARFSGSGSGTDFTLTISSLEPEDFAVYYCQQFNDLFTFGQGTKLEIK	–	0.2	0.0181	–
ExA43 (antibody, V domains shown, Monoclonal anti-FGF23 antibody) VH: EVQLVQSGAEVRKPGASVKVSCKASGYTFTNHYMHWVRQAPGQGLEWMGIINPISGSTSNAQKLQGRVTFTRDTSANTAYMELSGLIPEDTAIYYCAREIVDAFDFWGQGTLVTVSS VL: AIQLTQSPSSLSASVGDRVTITCRASQGISSALVWYQQKPGQAPRLLIYDASSLESGIPARFSGSGSGTDFTLTISSLEPEDFAVYYCQQFNDYFTFGQGTKLEIK	–	–	0.0278	–
